Test results from US20230087600A1.

Columns and labels:
[1] = target: human IL-10 receptor (IL-10R) on T cells and B cells of human whole blood (human) (UniProt Q13651); test: cell-based or functional assay
[2] = target: T1, mouse IL-10 receptor (IL-10R) on T cells and B cells of C57BL/6 mouse splenocytes (mouse) (UniProt Q61727); test: cell-based or functional assay
T1 sequence (looked up) 1: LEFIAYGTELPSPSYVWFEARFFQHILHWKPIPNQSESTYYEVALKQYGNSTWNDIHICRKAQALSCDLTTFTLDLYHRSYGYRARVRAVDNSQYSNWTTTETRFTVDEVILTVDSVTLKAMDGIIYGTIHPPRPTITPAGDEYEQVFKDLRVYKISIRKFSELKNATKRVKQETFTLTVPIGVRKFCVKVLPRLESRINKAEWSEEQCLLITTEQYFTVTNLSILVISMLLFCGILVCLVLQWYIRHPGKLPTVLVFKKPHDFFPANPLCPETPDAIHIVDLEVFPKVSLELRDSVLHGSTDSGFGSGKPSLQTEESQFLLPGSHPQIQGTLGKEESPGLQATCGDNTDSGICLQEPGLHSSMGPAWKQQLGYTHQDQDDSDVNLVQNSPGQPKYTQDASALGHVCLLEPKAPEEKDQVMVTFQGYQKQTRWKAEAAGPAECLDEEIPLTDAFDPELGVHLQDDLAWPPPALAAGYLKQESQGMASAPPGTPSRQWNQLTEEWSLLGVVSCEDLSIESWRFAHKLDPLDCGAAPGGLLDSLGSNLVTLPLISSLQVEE
T1 sequence (looked up) 2: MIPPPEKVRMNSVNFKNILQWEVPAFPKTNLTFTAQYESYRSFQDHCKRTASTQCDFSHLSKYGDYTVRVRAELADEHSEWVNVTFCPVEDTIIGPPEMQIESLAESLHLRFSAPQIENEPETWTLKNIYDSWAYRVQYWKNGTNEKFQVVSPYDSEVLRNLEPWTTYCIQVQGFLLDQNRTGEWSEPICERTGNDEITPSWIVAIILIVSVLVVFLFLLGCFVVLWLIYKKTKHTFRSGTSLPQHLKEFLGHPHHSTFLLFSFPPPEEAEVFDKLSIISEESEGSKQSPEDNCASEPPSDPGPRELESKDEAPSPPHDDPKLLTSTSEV

Sequence of human IL-10 receptor (IL-10R) on T cells and B cells of human whole blood (human) (Q13651 22-578, chain 1 of 2): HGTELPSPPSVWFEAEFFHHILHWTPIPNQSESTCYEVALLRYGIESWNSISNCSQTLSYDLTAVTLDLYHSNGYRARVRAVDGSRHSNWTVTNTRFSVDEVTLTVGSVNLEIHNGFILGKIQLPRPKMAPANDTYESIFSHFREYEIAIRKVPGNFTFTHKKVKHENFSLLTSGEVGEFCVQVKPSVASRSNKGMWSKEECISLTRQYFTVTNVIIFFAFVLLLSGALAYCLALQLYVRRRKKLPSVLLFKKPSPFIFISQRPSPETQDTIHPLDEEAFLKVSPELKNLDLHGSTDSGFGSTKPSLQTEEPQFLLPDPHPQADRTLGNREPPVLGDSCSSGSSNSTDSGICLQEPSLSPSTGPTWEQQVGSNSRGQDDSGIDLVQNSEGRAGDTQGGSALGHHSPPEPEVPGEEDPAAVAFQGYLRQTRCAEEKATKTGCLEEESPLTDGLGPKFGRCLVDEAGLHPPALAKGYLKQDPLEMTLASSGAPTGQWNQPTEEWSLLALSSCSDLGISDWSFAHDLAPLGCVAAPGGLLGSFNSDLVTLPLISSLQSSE
Sequence of human IL-10 receptor (IL-10R) on T cells and B cells of human whole blood (human) (Q08334 20-325, chain 2 of 2, further chain): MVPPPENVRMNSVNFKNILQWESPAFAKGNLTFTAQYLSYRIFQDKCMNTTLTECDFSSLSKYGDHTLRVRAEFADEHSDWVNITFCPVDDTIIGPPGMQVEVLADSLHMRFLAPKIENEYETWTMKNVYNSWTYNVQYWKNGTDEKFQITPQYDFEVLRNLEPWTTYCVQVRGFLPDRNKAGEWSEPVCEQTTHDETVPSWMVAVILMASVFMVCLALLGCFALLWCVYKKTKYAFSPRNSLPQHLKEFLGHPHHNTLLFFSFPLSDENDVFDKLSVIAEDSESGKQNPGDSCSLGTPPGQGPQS

STAT3 phosphorylation (pY705), flow cytometry, CD3+ T cells in human whole blood, EC50 [1] [pM]	STAT3 phosphorylation (pY705), flow cytometry, CD19+ B cells in human whole blood, EC50 [1] [pM]	STAT3 phosphorylation (pY705), flow cytometry, B cells of C57BL/6 mouse splenocytes (CD19 + B cells), EC50 [2] [pM]	STAT3 phosphorylation (pY705), flow cytometry, CD3+ T cells of C57BL/6 mouse splenocytes, EC50 [2] [pM]	Substance
167	347	–	–	5KPEG-hIL-10 (human IL-10 conjugated to 5 KD PEG) (from UniProt P22301 19-178) (ligand)
–	–	125	441	mIgG1-D265A-Fc-(G4S)4-mIL-10 (Fc fusion)
